Laboratory results reported in the supplement of paper PMC10567573.

B1: C9orf9 (parent)
chain: LTKASLKPRGCSKPPWRPPGGKL
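Note: lentivirally expressed fusions sorted by FACS into six bins by GFP to DsRed ratio, PSI derived from sequencing read proportions per bin multiplied by bin number.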

Variants of: B1
Assay: protein stability index of a GFP-peptide fusion (GPS, HEK-293T) (PSI 1-6); higher = more stable
Conditions: c terminus: native
With LTKNSLKPRGCSKPPWRPPGGKL [A4N] the protein stability index was 2. LTKWSLKPRGCSKPPWRPPGGKL [A4W] showed a protein stability index of 2.44. LTKHSLKPRGCSKPPWRPPGGKL [A4H] showed a protein stability index of 1.96. In the case of LTKISLKPRGCSKPPWRPPGGKL [A4I], the protein stability index is reported as 1.61. For LTKMSLKPRGCSKPPWRPPGGKL [A4M], the protein stability index was 1.69. For LTKLSLKPRGCSKPPWRPPGGKL [A4L], the protein stability index was 1.08. With LTKSSLKPRGCSKPPWRPPGGKL [A4S] the protein stability index was 2.02. LTKFSLKPRGCSKPPWRPPGGKL [A4F] showed a protein stability index of 1.75. Work on LTKKSLKPRGCSKPPWRPPGGKL [A4K] yielded a protein stability index of 1.8. With LTKQSLKPRGCSKPPWRPPGGKL [A4Q] the protein stability index was 1.65. LTKASLKPHGCSKPPWRPPGGKL [R9H] showed a protein stability index of 1.35. LTKASLKPEGCSKPPWRPPGGKL [R9E] showed a protein stability index of 1.9. For LTKASLKPCGCSKPPWRPPGGKL [R9C], the protein stability index was 3.36. For LTKASLKPGGCSKPPWRPPGGKL [R9G], the protein stability index was 1.37. Work on LTKASLKPAGCSKPPWRPPGGKL [R9A] yielded a protein stability index of 1.7. For LTKASLKPFGCSKPPWRPPGGKL [R9F], the protein stability index was 1.15. VTKASLKPRGCSKPPWRPPGGKL [L1V] showed a protein stability index of 1.8. With NTKASLKPRGCSKPPWRPPGGKL [L1N] the protein stability index was 3.8. YTKASLKPRGCSKPPWRPPGGKL [L1Y] showed a protein stability index of 2.31. KTKASLKPRGCSKPPWRPPGGKL [L1K] showed a protein stability index of 1.85. For TTKASLKPRGCSKPPWRPPGGKL [L1T], the protein stability index was 1.85. ETKASLKPRGCSKPPWRPPGGKL [L1E] showed a protein stability index of 2.09. Work on RTKASLKPRGCSKPPWRPPGGKL [L1R] yielded a protein stability index of 2.13. In the case of MTKASLKPRGCSKPPWRPPGGKL [L1M], the protein stability index is reported as 1.86. Work on HTKASLKPRGCSKPPWRPPGGKL [L1H] yielded a protein stability index of 1.82. QTKASLKPRGCSKPPWRPPGGKL [L1Q] showed a protein stability index of 3.17. DTKASLKPRGCSKPPWRPPGGKL [L1D] gave a protein stability index of 1.76. With FTKASLKPRGCSKPPWRPPGGKL [L1F] the protein stability index was 2.29. STKASLKPRGCSKPPWRPPGGKL [L1S] showed a protein stability index of 2.78. In the case of ITKASLKPRGCSKPPWRPPGGKL [L1I], the protein stability index is reported as 1.71. Work on WTKASLKPRGCSKPPWRPPGGKL [L1W] yielded a protein stability index of 1.89. GTKASLKPRGCSKPPWRPPGGKL [L1G] gave a protein stability index of 2.5. Variant PTKASLKPRGCSKPPWRPPGGKL [L1P] has a protein stability index of 2.06. LTKASLKFRGCSKPPWRPPGGKL [P8F] gave a protein stability index of 2.51. Work on LTKASLKARGCSKPPWRPPGGKL [P8A] yielded a protein stability index of 3.56. LTKASLKWRGCSKPPWRPPGGKL [P8W] showed a protein stability index of 4.77. In the case of LTKASLKHRGCSKPPWRPPGGKL [P8H], the protein stability index is reported as 1.65. Work on LTKASLKYRGCSKPPWRPPGGKL [P8Y] yielded a protein stability index of 2.15. For LTKASLKQRGCSKPPWRPPGGKL [P8Q], the protein stability index was 4.76. Work on LTKASLKMRGCSKPPWRPPGGKL [P8M] yielded a protein stability index of 2.53. LTKASLKLRGCSKPPWRPPGGKL [P8L] showed a protein stability index of 2.77. Work on LTKAILKPRGCSKPPWRPPGGKL [S5I] yielded a protein stability index of 2.9. In the case of LTKAWLKPRGCSKPPWRPPGGKL [S5W], the protein stability index is reported as 3.95. LTKAHLKPRGCSKPPWRPPGGKL [S5H] showed a protein stability index of 1.55. LTKADLKPRGCSKPPWRPPGGKL [S5D] gave a protein stability index of 1.19. For LTKAALKPRGCSKPPWRPPGGKL [S5A], the protein stability index was 2.57. LTKAFLKPRGCSKPPWRPPGGKL [S5F] gave a protein stability index of 2.03. Work on LTKALLKPRGCSKPPWRPPGGKL [S5L] yielded a protein stability index of 2.21. Variant LTKATLKPRGCSKPPWRPPGGKL [S5T] has a protein stability index of 2.08. Variant LTKAPLKPRGCSKPPWRPPGGKL [S5P] has a protein stability index of 2.21. With LTKAQLKPRGCSKPPWRPPGGKL [S5Q] the protein stability index was 3.27. In the case of LTKAMLKPRGCSKPPWRPPGGKL [S5M], the protein stability index is reported as 1.83. LTKAKLKPRGCSKPPWRPPGGKL [S5K] showed a protein stability index of 2.43. LTKAVLKPRGCSKPPWRPPGGKL [S5V] gave a protein stability index of 2.5. Variant LTKANLKPRGCSKPPWRPPGGKL [S5N] has a protein stability index of 1.99. LTKACLKPRGCSKPPWRPPGGKL [S5C] showed a protein stability index of 1.86. LTKAGLKPRGCSKPPWRPPGGKL [S5G] showed a protein stability index of 1.24. Variant LTKAELKPRGCSKPPWRPPGGKL [S5E] has a protein stability index of 1.81. In the case of LTKASLMPRGCSKPPWRPPGGKL [K7M], the protein stability index is reported as 2.66. Work on LTKASLCPRGCSKPPWRPPGGKL [K7C] yielded a protein stability index of 1.68. LTKASLIPRGCSKPPWRPPGGKL [K7I] showed a protein stability index of 1.56. With LTKASLHPRGCSKPPWRPPGGKL [K7H] the protein stability index was 2.31. Variant LTKASLNPRGCSKPPWRPPGGKL [K7N] has a protein stability index of 2.32. In the case of LTKASLFPRGCSKPPWRPPGGKL [K7F], the protein stability index is reported as 1.78. For LTKASLSPRGCSKPPWRPPGGKL [K7S], the protein stability index was 1.53. For LTKASLEPRGCSKPPWRPPGGKL [K7E], the protein stability index was 1.51. In the case of LTKASLTPRGCSKPPWRPPGGKL [K7T], the protein stability index is reported as 2.25. In the case of LTKASLGPRGCSKPPWRPPGGKL [K7G], the protein stability index is reported as 1.51. Variant LTKASLAPRGCSKPPWRPPGGKL [K7A] has a protein stability index of 2.72. In the case of LTKASLLPRGCSKPPWRPPGGKL [K7L], the protein stability index is reported as 1.69. With LTKASLVPRGCSKPPWRPPGGKL [K7V] the protein stability index was 2.25. LRKASLKPRGCSKPPWRPPGGKL [T2R] showed a protein stability index of 1.85. With LQKASLKPRGCSKPPWRPPGGKL [T2Q] the protein stability index was 1.32. With LKKASLKPRGCSKPPWRPPGGKL [T2K] the protein stability index was 2.28. In the case of LVKASLKPRGCSKPPWRPPGGKL [T2V], the protein stability index is reported as 1.58. In the case of LGKASLKPRGCSKPPWRPPGGKL [T2G], the protein stability index is reported as 1.36. Work on LAKASLKPRGCSKPPWRPPGGKL [T2A] yielded a protein stability index of 1.67. LSKASLKPRGCSKPPWRPPGGKL [T2S] gave a protein stability index of 2.59. In the case of LDKASLKPRGCSKPPWRPPGGKL [T2D], the protein stability index is reported as 1.78. For LPKASLKPRGCSKPPWRPPGGKL [T2P], the protein stability index was 2.72. For LFKASLKPRGCSKPPWRPPGGKL [T2F], the protein stability index was 1.95. Variant LIKASLKPRGCSKPPWRPPGGKL [T2I] has a protein stability index of 1.86. Work on LNKASLKPRGCSKPPWRPPGGKL [T2N] yielded a protein stability index of 2.21. With LLKASLKPRGCSKPPWRPPGGKL [T2L] the protein stability index was 2.26. With LCKASLKPRGCSKPPWRPPGGKL [T2C] the protein stability index was 1.96. Variant LHKASLKPRGCSKPPWRPPGGKL [T2H] has a protein stability index of 2.12. Variant LTKASFKPRGCSKPPWRPPGGKL [L6F] has a protein stability index of 2.35. Work on LTKASRKPRGCSKPPWRPPGGKL [L6R] yielded a protein stability index of 2.17. Variant LTKASIKPRGCSKPPWRPPGGKL [L6I] has a protein stability index of 1.37. Work on LTKASQKPRGCSKPPWRPPGGKL [L6Q] yielded a protein stability index of 4.53. LTKASTKPRGCSKPPWRPPGGKL [L6T] gave a protein stability index of 1.87. In the case of LTKASPKPRGCSKPPWRPPGGKL [L6P], the protein stability index is reported as 1.9. With LTKASSKPRGCSKPPWRPPGGKL [L6S] the protein stability index was 2.47. Work on LTKASYKPRGCSKPPWRPPGGKL [L6Y] yielded a protein stability index of 2.04. For LTKASHKPRGCSKPPWRPPGGKL [L6H], the protein stability index was 1.89. LTKASDKPRGCSKPPWRPPGGKL [L6D] showed a protein stability index of 1.5.
